T1: TNFSF18 (recombinant human protein) (human, UniProt Q9UNG2 52-177, limits assumed)
T1 construct: Recombinant human protein immobilized at 5 ug/mL for ELISA
T1 sequence (looked up): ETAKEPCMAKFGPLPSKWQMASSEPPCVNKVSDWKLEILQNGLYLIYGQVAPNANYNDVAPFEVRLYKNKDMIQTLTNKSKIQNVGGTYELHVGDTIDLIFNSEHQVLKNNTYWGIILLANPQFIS

T2: TNFRSF17 (recombinant human protein) (human, UniProt Q02223 1-54)
T2 construct: Recombinant human protein immobilized at 5 ug/mL for ELISA
T2 sequence (looked up): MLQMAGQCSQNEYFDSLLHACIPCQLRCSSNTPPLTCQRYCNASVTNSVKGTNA

T3: PROCR (human, UniProt Q9UNN8 18-210)
T3 construct: Recombinant human protein in ELISA and BLI
T3 sequence (looked up): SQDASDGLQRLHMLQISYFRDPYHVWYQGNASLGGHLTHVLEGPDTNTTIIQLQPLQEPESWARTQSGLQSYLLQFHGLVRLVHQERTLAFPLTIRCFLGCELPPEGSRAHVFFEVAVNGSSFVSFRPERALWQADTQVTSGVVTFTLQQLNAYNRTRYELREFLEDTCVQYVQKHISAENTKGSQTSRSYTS

T4: CD302 (human, UniProt Q8IX05 23-168, limits assumed)
T4 construct: Recombinant human protein in ELISA
T4 sequence (looked up): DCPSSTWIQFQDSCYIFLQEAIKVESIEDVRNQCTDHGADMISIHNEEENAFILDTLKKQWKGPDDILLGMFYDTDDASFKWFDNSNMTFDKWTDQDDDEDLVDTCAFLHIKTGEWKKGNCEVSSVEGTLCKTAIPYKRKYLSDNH

B1: TNFRSF17_Nb2.18 (Fc fusion)
chain: QVQLQESGGGLVQAGGSLRLSCAASGNIFRGWYMGWYRQAPGKEREFVATIASGGSTYYADSVKGRFTISRDNAKNTVYLQMNSLKPEDTAVYYCAVWDWEPGDYAYWGQGTQVTVSS
notes: Nanobody expressed as an Fc fusion protein (fused with human IgG1) in Expi293 cells; not shown: human IgG1 Fc; nanobodies expressed as Fc fusion from vector pCER243
B2: TNFRSF17_Nb2.23 (Fc fusion)
chain: QVQLQESGGGLVQAGGSLRLSCAASGYISRYDYMGWYRQAPGKERELVAAINSGASTYYADSVKGRFTISRDNAKNTVYLQMNSLKPEDTAVYYCAVRSWGLDDYAYWGQGTQVTVSS
notes: as for B1
B3: TNFRSF17_Nb2.21 (Fc fusion)
chain: QVQLQESGGGLVQAGGSLRLSCAASGTIFQYDYMGWYRQAPGKEREFVAAIAYGGNTNYADSVKGRFTISRDNAKNTVYLQMNSLKPEDTAVYYCAAWSWRRSRAYWGQGTQVTVSS
notes: as for B1
B4: TNFSF18_Nb94 (Fc fusion)
chain: QVQLQESGGGLVQAGGSLRLSCAASGNISLYYDMGWYRQAPGKERELVAAIDPGTITYYADSVKGRFTISRDNAKNTVYLQMNSLKPEDTAVYYCAVVIPDYVYRYVVGTVDYGYWGQGTQVTVSS
notes: as for B1
B5: TNFRSF17_Nb2.19 (Fc fusion)
chain: QVQLQESGGGLVQAGGSLRLSCAASGTISHPTYMGWYRQAPGKEREFVAGISDGTNTYYADSVKGRFTISRDNAKNTVYLQMNSLKPEDTAVYYCAAITSWDYGYGYWGQGTQVTVSS
notes: as for B1
B6: TNFSF18_Nb93 (Fc fusion)
chain: QVQLQESGGGLVQAGGSLRLSCAASGNISDPPFMGWYRQAPGKERELVAGISWGASTYYADSVKGRFTISRDNAKNTVYLQMNSLKPEDTAVYYCAAVTTDFGAYPFAYWGQGTQVTVSS
notes: as for B1
B7: TNFSF18_Nb101 (Fc fusion)
chain: QVQLQESGGGLVQAGGSLRLSCAASGYIFDDYGMGWYRQAPGKERELVATINAGANTNYADSVKGRFTISRDNAKNTVYLQMNSLKPEDTAVYYCAVYYGPYYRYLDPYLYWGQGTQVTVSS
notes: as for B1
B8: TNFRSF17_Nb2.20 (Fc fusion)
chain: QVQLQESGGGLVQAGGSLRLSCAASGTIFSDYMGWYRQAPGKEREFVATIAVGSITYYADSVKGRFTISRDNAKNTVYLQMNSLKPEDTAVYYCAVWDASWADYAYWGQGTQVTVSS
notes: as for B1
B9: CD3E_Nb2.77 (Fc fusion)
chain: QVQLQESGGGLVQAGGSLRLSCAASGSISPVAVMGWYRQAPGKEREFVAAINYGANTYYADSVKGRFTISRDNAKNTVYLQMNSLKPEDTAVYYCAAATYAPYQRSGKLVYWGQGTQVTVSS
notes: Nanobody expressed and tested as Fc fusion (human IgG1); not shown: human IgG1 Fc (vector pCER243)
B10: CD3E_Nb2.80 (Fc fusion)
chain: QVQLQESGGGLVQAGGSLRLSCAASGNISRRYVMGWYRQAPGKEREFVAGISGGSSTYYADSVKGRFTISRDNAKNTVYLQMNSLKPEDTAVYYCAVLISGNTPNAISHYYWGQGTQVTVSS
notes: as for B9
B11: CD3E_Nb2.74 (Fc fusion)
chain: QVQLQESGGGLVQAGGSLRLSCAASGTIFYASVMGWYRQAPGKEREFVAGITPGGSTNYADSVKGRFTISRDNAKNTVYLQMNSLKPEDTAVYYCAVYYRYSEGRIGGHAYWGQGTQVTVSS
notes: as for B9
B12: CD3E_Nb2.76 (Fc fusion)
chain: QVQLQESGGGLVQAGGSLRLSCAASGNIFGNVVMGWYRQAPGKEREFVAGINNGGSTNYADSVKGRFTISRDNAKNTVYLQMNSLKPEDTAVYYCAVYYYYLTYHLYWGQGTQVTVSS
notes: as for B9
B13: CD3E_Nb2.73 (Fc fusion)
chain: QVQLQESGGGLVQAGGSLRLSCAASGNISDITVMGWYRQAPGKEREFVAGINYGGSTNYADSVKGRFTISRDNAKNTVYLQMNSLKPEDTAVYYCAARYRYRYSAREFHDYWGQGTQVTVSS
notes: as for B9
B14: CD3E_Nb2.79 (Fc fusion)
chain: QVQLQESGGGLVQAGGSLRLSCAASGTISPWRVMGWYRQAPGKEREFVAGITPGTTTYYADSVKGRFTISRDNAKNTVYLQMNSLKPEDTAVYYCAVSAGASTPARYRLVYWGQGTQVTVSS
notes: as for B9
B15: PROCR_Nb89 (Fc fusion)
chain: QVQLQESGGGLVQAGGSLRLSCAASGTIFRDDNMGWYRQAPGKEREFVAAIGYGSTTNYADSVKGRFTISRDNAKNTVYLQMNSLKPEDTAVYYCAVRNTYWNLLQYWGQGTQVTVSS
notes: as for B9
B16: PROCR_Nb85 (Fc fusion)
chain: QVQLQESGGGLVQAGGSLRLSCAASGNISVLVYMGWYRQAPGKERELVAAITTGTSTYYADSVKGRFTISRDNAKNTVYLQMNSLKPEDTAVYYCAADYYGPWYHQYWGQGTQVTVSS
notes: as for B9
B17: PROCR_Nb83 (Fc fusion)
chain: QVQLQESGGGLVQAGGSLRLSCAASGNISPTRFMGWYRQAPGKEREFVAAIDLGTTTNYADSVKGRFTISRDNAKNTVYLQMNSLKPEDTAVYYCAADWNGPWSFWYWGQGTQVTVSS
notes: as for B9
B18: PROCR_Nb90 (Fc fusion)
chain: QVQLQESGGGLVQAGGSLRLSCAASGTISGGYNMGWYRQAPGKEREFVATIGDGSSTYYADSVKGRFTISRDNAKNTVYLQMNSLKPEDTAVYYCAAFNSAQYWYESPFRYWGQGTQVTVSS
notes: as for B9
B19: CD302_Nb31 (Fc fusion)
chain: QVQLQESGGGLVQAGGSLRLSCAASGTIFKSAGMGWYRQAPGKEREFVAGIAPGAITYYADSVKGRFTISRDNAKNTVYLQMNSLKPEDTAVYYCAALVADGRPYRYWGQGTQVTVSS
notes: as for B9
B20: CD302_Nb35 (Fc fusion)
chain: QVQLQESGGGLVQAGGSLRLSCAASGTISRVFVMGWYRQAPGKERELVAGIGGGTSTYYADSVKGRFTISRDNAKNTVYLQMNSLKPEDTAVYYCAAILSDRVLFRYWGQGTQVTVSS
notes: as for B9
B21: CD302_Nb30 (Fc fusion)
chain: QVQLQESGGGLVQAGGSLRLSCAASGSISLATGMGWYRQAPGKEREFVAGISVGTSTYYADSVKGRFTISRDNAKNTVYLQMNSLKPEDTAVYYCAAIAWHPSGARSYLRYWGQGTQVTVSS
notes: as for B9
B22: CD302_Nb26 (Fc fusion)
chain: QVQLQESGGGLVQAGGSLRLSCAASGNISFIGAMGWYRQAPGKEREFVAGINVGTNTYYADSVKGRFTISRDNAKNTVYLQMNSLKPEDTAVYYCAAYVFVSRIDLRYLVYWGQGTQVTVSS
notes: as for B9
B23: CD302_Nb28 (Fc fusion)
chain: QVQLQESGGGLVQAGGSLRLSCAASGSISGVSGMGWYRQAPGKEREFVAGITTGTSTYYADSVKGRFTISRDNAKNTVYLQMNSLKPEDTAVYYCAAYANYVPSSRLYLRYWGQGTQVTVSS
notes: as for B9
B24: CD302_Nb32 (Fc fusion)
chain: QVQLQESGGGLVQAGGSLRLSCAASGTIFPDSSMGWYRQAPGKEREFVAGITTGANTYYADSVKGRFTISRDNAKNTVYLQMNSLKPEDTAVYYCAAYHVDRAVFRYWGQGTQVTVSS
notes: as for B9
B25: CD302_Nb33 (Fc fusion)
chain: QVQLQESGGGLVQAGGSLRLSCAASGTISIIFAMGWYRQAPGKEREFVAGIGRGTTTYYADSVKGRFTISRDNAKNTVYLQMNSLKPEDTAVYYCAAHVFYDNVVQRHAYWGQGTQVTVSS
notes: as for B9

One assay deals with REAP Off-Targets. As to the kind of experiment: REAP, nanobody-Fc on yeast-displayed human antigen library.
On to B1, for which the REAP Off-Targets (number) was found to be 1 off-targets.

Regarding B2, the REAP Off-Targets (number) amounted to 2 off-targets.

In the case of B3, the REAP Off-Targets (number) turned out to be 5 off-targets.

For B4, the REAP Off-Targets (number) came out at 1 off-targets.

Molecule B5 registered an REAP Off-Targets (number) of 3 off-targets.

A further assay deals with T1, TNFSF18 (recombinant human protein). Put plainly: ELISA, recombinant human protein coated, nanobody-Fc titrated, anti-human IgG HRP. The protocol:
(§1) Recombinant human protein was diluted in PBS to a final concentration of 5 μg/mL and was immobilized on 96-well flat bottom MaxiSorp plates (Thermo Fisher Scientific) and placed at 4° C. overnight. Plates were washed three times with 225 μL ELISA wash buffer (PBS with 0.05% Tween 20) and 200 μL ELISA blocking buffer (PBS with 1% Casein) was added to the well. Plates were incubated with shaking for 2 hours at room temperature. ELISA blocking buffer was removed from the wells and appropriate dilutions of recombinant nanobodies in 100 μL ELISA blocking buffer was added to each well. Plates were incubated with shaking for 2 hours at room temperature. Plates were washed 3 times with 225 μL ELISA wash buffer and 1:5000 goat anti-human IgG HRP (Millipore Sigma) in 100 μL ELISA blocking buffer was added to the wells. Plates were incubated with shaking for 1 hour at room temperature. Plates were washed 6 times with 225 μL ELISA wash buffer. 50 μL TMB substrate (BD Biosciences) was added to the wells and plates were incubated for 15 minutes in the dark at room temperature. 50 μL 1 M sulfuric acid was added to the wells and absorbance at 450 nm was measured in a Synergy HTX Multi-Mode Microplate Reader (BioTek).
In the case of B6, the EC50 (usually the concentration at which the effect is half-maximal) came to 1.59 nM.

Regarding B7, the EC50 was 22.6 nM.

Consider B4, for which the EC50 is 71.8 nM.

A further assay deals with T2, TNFRSF17 (recombinant human protein). The description is as above. The protocol: as §1
Regarding B1, the EC50 is 2.82 nM.

As to B2, the concentration for a half-maximal effect (EC50) worked out at 7.57 nM.

For B3, the half-maximal effective concentration (EC50) came out at 4.75 nM.

Regarding B5, the EC50 was found to be 2.84 nM.

For the molecule B8, the concentration giving a half-maximal response (EC50) was determined as 1.02 nM.

The target of another assay is T5, CD3E (human, UniProt P07766 23-126).
T5 construct: Recombinant human protein in ELISA
T5 sequence (P07766 23-126 limits assumed): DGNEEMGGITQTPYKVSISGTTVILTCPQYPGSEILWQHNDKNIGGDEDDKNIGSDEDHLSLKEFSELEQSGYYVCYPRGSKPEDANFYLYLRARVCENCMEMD
As to the kind of experiment: ELISA, plate-coated recombinant human protein, nanobody-Fc. As for the experimental part:
as §1
(In an ELISA, binding on a coated surface is turned into a signal by an enzyme label.)
As to B9, the 50% effective concentration (EC50) turned out to be 0.67 nM.

In the case of B10, the EC50 stood at 17.9 nM.

On to B11, for which the concentration giving a half-maximal response (EC50) is 1.2 nM.

For the molecule B12, the EC50 is 16.1 nM.

As to B13, the EC50 is 0.735 nM.

With B14, the EC50 turned out to be 0.579 nM.

Another assay has as its target T3, PROCR. Described as above. As for the experimental part: as §1
B15: the concentration for a half-maximal effect (EC50) was found to be 0.565 nM.

In the case of B16, the EC50 was 0.352 nM.

For B17, the 50% effective concentration (EC50) came to 1.27 nM.

For the molecule B18, the EC50 stood at 1.74 nM.

A further assay has as its target T4, CD302. The description is as above. As for the experimental part: as §1
B19: the 50% effective concentration (EC50) was 1.26 nM.

B20: the EC50 was determined as 0.654 nM.

On to B21, for which the concentration for a half-maximal effect (EC50) was 2.21 nM.

In the case of B22, the concentration for a half-maximal effect (EC50) is 8.5 nM.

Regarding B23, the EC50 came out at 0.684 nM.

As to B24, the concentration for a half-maximal effect (EC50) turned out to be 0.49 nM.

As to B25, the EC50 stood at 2.26 nM.

Source of the values: US20230416942A1 (YALE UNIVERSITY, published 2023).
